Positions count from the first letter of the chain named. Where two headings read alike, the source gives them in different places.
B1: 80R_5 antibody (antibody, V domains shown)
VH: EVQLVQSGGGVVQPGKSLRLSCKASGFAFSNYAMHWVRQAPGKGLEWVAVISYDGSYKYYADSVKGRFTISRDNSKNTLYLQMNSLRAEDTAVYYCARDRSYYLDYWGQGTLVTVSS
VL: TTLTQSPATLSLSPGERATLSCKASEDIGTALAWYQQKPGQAPRPLIFDGAILAPGIPDRFSGSGSGTDFTLTISRLEPEDFAVYYCHNVYSWPPTFGQGTKVEVK
B2: 80R_18 antibody (antibody, V domains shown)
VH: B1 VH with K23V, A28N, N31E, R100N, S101A
VL: B1 VL with K23Q, A31N, G50A, I52Q, D69Q, H88Q, N89Q, V90I, S92N, T96S
B3: 80R_22 antibody (antibody, V domains shown)
VH: B1 VH with K23V, A28D, S30K, N31S, R100N, S101A
VL: B1 VL with K23H, D49Y, G50A, I52Q, H88A, N89Q, V90Y, Y91W, W93L
B4: 80R_23 antibody (antibody, V domains shown)
VH: B1 VH with K23V, A28D, S30K, N31S, R100N, S101A
VL: B1 VL with K23H, A31N, I52Q, H88Q, N89Q, V90I, S92N, T96S
B5: 80R antibody (antibody, V domains shown)
VH: B1 VH with K23A, N31S, Y57N
VL: TTLTQSPATLSLSPGERATLSCRASQSVRSNLAWYQQKPGQAPRPLIYDASTRATGIPDRFSGSGSGTDFTLTISRLEPEDFAVYYCQQRSNWPPTFGQGTKVEVK
B6: 80R_8 antibody (antibody, V domains shown)
VH: B1 VH with K23V, A28D, S30K, S56K
VL: B1 VL with K23I, E26Q, A31N, S66A, H88Q, N89Q, V90T, S92N
B7: 80R_6 antibody (antibody, V domains shown)
VH: B1 VH with K23T, A28N, N31E
VL: B1 VL with T30S, A31N, G50A, I52Q, H88F, N89Q, V90I, S92T
B8: 80R_7 antibody (antibody, V domains shown)
VH: B1 VH with K23Q, A28D, S30K, N31S, Y57I, Y59H
VL: B1 VL with K23I, E26Q, S66A, H88M, N89Q, V90T, Y91W, S92T, W93L, P95V
B9: 80R_19 antibody (antibody, V domains shown)
VH: B1 VH with K23V, A28D, S30K, N31S, R100N, S101A
VL: B1 VL with K23H, A31N, G50A, I52Q, H88M, N89Q, V90I, Y91H, S92N, T96S
B10: 80R_21 antibody (antibody, V domains shown)
VH: B1 VH with K23V, A28D, N31K, R100N, S101A
VL: B1 VL with A31N, G50A, H88M, N89Q, V90I, S92N, T96S
B11: 80R_10 antibody (antibody, V domains shown)
VH: B1 VH with K23V, A28D, S30K, N31S, S56R
VL: TTLTQSPATLSLSPGERATLSCHASEDIGTALAWYQQKPGQAPRPLIFYAAQLAPGIPDRFSGSGSGTDFTLTISRLEPEDFAVYYCFQSWTLPLTFGQGTKVEVK

Columns and labels:
Test in all cases: BLI
[1] = target: Wild-type SARS-CoV-2 full length spike trimer (SARS-CoV-2, wild type (Wuhan-Hu-1), UniProt P0DTC2)
[2] = target: T1, SARS-CoV-2 B.1.617.2 Spike S1+S2 trimer (ECD, His tag) (SARS-CoV-2, Delta (B.1.617.2), L452R | T478K)
[3] = target: Wuhan S6P SARS-CoV-2 full length spike trimer (SARS-CoV-2, Wuhan, UniProt P0DTC2, stabilised)
[4] = target: SARS-CoV-2 Spike Trimer, His Tag (BA.5/Omicron) (SARS-CoV-2, Omicron BA.5, strain)
[5] = target: T1, SARS-CoV-2 B.1.617.2 Spike S1+S2 trimer …; remark: listed apart in the source

Binder | Kd [1] | also measured
B1 | 0.468 nM | Kd [2]: 0.443 nM; Kd [3]: < 0.001 nM; Kd [4]: 1.12 nM; Kd [5]: 0.441 nM
B2 | 2.68 nM | 
B3 | 1.39 nM | 
B4 | 0.858 nM | Kd [2]: 0.625 nM
B5 |  | binding result [1]: no binding
B6 | 114 nM | 
B7 | 4.16 nM | 
B8 | 2.85 nM | 
B9 | 0.845 nM | 
B10 | 3.1 nM | 
B11 | 1.82 nM | 
